According to patent US20100203630A1:

Target: envelope of the SF162 strain of pseudovirus (HIV, SF162) (UniProt P19550)
Assay: cell-based or functional assay

**Q.** purified b12-IgG1 (antibody) was tested. Which neutralizing 50% inhibitory concentration (IC50), pseudovirus neutralization assay did it give?
**A.** 0.026 µg/mL
